# Results from paper PMC9482650, “Quantitative fragmentomics allow affinity mapping of interactomes” (Nature Communications, 2022).
# Substitutions are numbered along the chain they refer to.
# Target: ARHGEF12, Q9NZN5-2
# Assay: holdup assay
# Set-up: key: below the threshold = too weak to quantify, mostly under pKd 3.1 to 4
# Details: plain residues with an end cap or a label only (N-terminal biotin on a linker: ado-ado)
# Sequence of ARHGEF12, Q9NZN5-2 (Q9NZN5 other isoform, or with tags, fused parts or gaps): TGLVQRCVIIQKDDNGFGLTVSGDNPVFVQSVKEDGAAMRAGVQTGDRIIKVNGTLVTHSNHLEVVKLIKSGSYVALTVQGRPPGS
row,Binder,pKd
1,"KSRPENGTVC [TMEM178B, H3BS89]",3.65
2,"IQISELETNV [SLC1A7, O00341]",3.71

# Target: DLG1_2, Q12959
# Assay: holdup assay
# Set-up: key: below the threshold = too weak to quantify, mostly under pKd 3.1 to 4
# Details: plain residues with an end cap or a label only (N-terminal biotin on a linker: ado-ado)
# Sequence of DLG1_2, Q12959 (Q12959 314-412): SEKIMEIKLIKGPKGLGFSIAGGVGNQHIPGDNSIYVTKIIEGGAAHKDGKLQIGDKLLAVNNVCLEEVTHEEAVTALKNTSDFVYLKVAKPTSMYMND
row,Binder,pKd
1,"KSRPENGTVC [TMEM178B, H3BS89]",below the threshold
2,"IQISELETNV [SLC1A7, O00341]",4.91

# Target: T1, DLG3_1, Q92796
# T1 sequence (Q92796 125-227, limits assumed, looked up): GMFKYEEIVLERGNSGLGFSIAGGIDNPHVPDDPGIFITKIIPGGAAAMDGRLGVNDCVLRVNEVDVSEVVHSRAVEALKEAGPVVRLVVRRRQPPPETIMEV
# Assay: holdup assay
# Set-up: key: below the threshold = too weak to quantify, mostly under pKd 3.1 to 4
# Details: plain residues with an end cap or a label only (N-terminal biotin on a linker: ado-ado)
row,Binder,pKd
1,"KSRPENGTVC [TMEM178B, H3BS89]",below the threshold
2,"IQISELETNV [SLC1A7, O00341]",3.91

# Target: T2, DLG3_3, Q92796
# T2 sequence (Q92796 374-475, limits assumed, looked up): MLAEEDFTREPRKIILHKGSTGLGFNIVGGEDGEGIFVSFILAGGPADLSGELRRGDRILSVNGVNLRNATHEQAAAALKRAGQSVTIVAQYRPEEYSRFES
# Assay: holdup assay
# Set-up: key: below the threshold = too weak to quantify, mostly under pKd 3.1 to 4
# Details: plain residues with an end cap or a label only (N-terminal biotin on a linker: ado-ado)
row,Binder,pKd
1,"KSRPENGTVC [TMEM178B, H3BS89]",below the threshold
2,"IQISELETNV [SLC1A7, O00341]",3.56

# Target: DLG5_1, Q8TDM6
# Assay: holdup assay
# Set-up: key: below the threshold = too weak to quantify, mostly under pKd 3.1 to 4
# Details: plain residues with an end cap or a label only (N-terminal biotin on a linker: ado-ado)
# Sequence of DLG5_1, Q8TDM6 (Q8TDM6 617-713): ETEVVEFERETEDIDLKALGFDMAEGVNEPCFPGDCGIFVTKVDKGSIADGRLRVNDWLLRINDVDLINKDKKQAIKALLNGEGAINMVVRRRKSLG
row,Binder,pKd
1,"KSRPENGTVC [TMEM178B, H3BS89]",below the threshold
2,"IQISELETNV [SLC1A7, O00341]",below the threshold

# Target: T3, DVL3, Q92997
# T3 sequence (Q92997 244-331, limits assumed, looked up): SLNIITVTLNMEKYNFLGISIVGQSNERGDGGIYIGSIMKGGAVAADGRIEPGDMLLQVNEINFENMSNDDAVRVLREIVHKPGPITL
# Assay: holdup assay
# Set-up: key: below the threshold = too weak to quantify, mostly under pKd 3.1 to 4
# Details: plain residues with an end cap or a label only (N-terminal biotin on a linker: ado-ado)
row,Binder,pKd
1,"KSRPENGTVC [TMEM178B, H3BS89]",below the threshold
2,"IQISELETNV [SLC1A7, O00341]",below the threshold

# Target: FRMPD2_1, Q68DX3
# Assay: holdup assay
# Set-up: key: below the threshold = too weak to quantify, mostly under pKd 3.1 to 4
# Details: plain residues with an end cap or a label only (N-terminal biotin on a linker: ado-ado)
# Sequence of FRMPD2_1, Q68DX3 (Q68DX3 770-861): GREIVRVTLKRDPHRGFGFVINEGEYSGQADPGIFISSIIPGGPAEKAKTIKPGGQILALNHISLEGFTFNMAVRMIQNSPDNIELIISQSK
row,Binder,pKd
1,"KSRPENGTVC [TMEM178B, H3BS89]",below the threshold
2,"IQISELETNV [SLC1A7, O00341]",below the threshold

# Target: GOPC, Q9HD26
# Assay: holdup assay
# Set-up: key: below the threshold = too weak to quantify, mostly under pKd 3.1 to 4
# Details: plain residues with an end cap or a label only (N-terminal biotin on a linker: ado-ado)
row,Binder,pKd
1,"KSRPENGTVC [TMEM178B, H3BS89]",below the threshold
2,"IQISELETNV [SLC1A7, O00341]",below the threshold

# Target: GORASP2, Q9H8Y8
# Assay: holdup assay
# Set-up: key: below the threshold = too weak to quantify, mostly under pKd 3.1 to 4
# Details: plain residues with an end cap or a label only (N-terminal biotin on a linker: ado-ado)
row,Binder,pKd
1,"KSRPENGTVC [TMEM178B, H3BS89]",below the threshold
2,"IQISELETNV [SLC1A7, O00341]",below the threshold

# Target: GRASP, Q7Z6J2
# Assay: holdup assay
# Set-up: key: below the threshold = too weak to quantify, mostly under pKd 3.1 to 4
# Details: plain residues with an end cap or a label only (N-terminal biotin on a linker: ado-ado)
# Sequence of GRASP, Q7Z6J2 (Q7Z6J2 96-193): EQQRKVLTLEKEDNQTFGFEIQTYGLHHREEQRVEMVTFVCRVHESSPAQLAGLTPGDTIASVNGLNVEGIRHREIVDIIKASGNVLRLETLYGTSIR
row,Binder,pKd
1,"KSRPENGTVC [TMEM178B, H3BS89]",below the threshold
2,"IQISELETNV [SLC1A7, O00341]",below the threshold

# Target: GRID2IP_1, A4D2P6
# Assay: holdup assay
# Set-up: key: below the threshold = too weak to quantify, mostly under pKd 3.1 to 4
# Details: plain residues with an end cap or a label only (N-terminal biotin on a linker: ado-ado)
# Sequence of GRID2IP_1, A4D2P6 (A4D2P6 1-87): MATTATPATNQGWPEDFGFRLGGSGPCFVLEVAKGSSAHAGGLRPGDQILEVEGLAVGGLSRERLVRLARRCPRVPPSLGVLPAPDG
row,Binder,pKd
1,"KSRPENGTVC [TMEM178B, H3BS89]",below the threshold
2,"IQISELETNV [SLC1A7, O00341]",below the threshold

# Target: Inadl_1, Q8NI35
# Assay: holdup assay
# Set-up: key: below the threshold = too weak to quantify, mostly under pKd 3.1 to 4
# Details: plain residues with an end cap or a label only (N-terminal biotin on a linker: ado-ado)
# Sequence of Inadl_1, Q8NI35 (Q8NI35 113-229): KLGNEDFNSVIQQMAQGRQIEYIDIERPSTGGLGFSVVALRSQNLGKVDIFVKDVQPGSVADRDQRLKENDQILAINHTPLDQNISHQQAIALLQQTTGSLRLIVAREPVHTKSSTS
row,Binder,pKd
1,"KSRPENGTVC [TMEM178B, H3BS89]",below the threshold
2,"IQISELETNV [SLC1A7, O00341]",below the threshold

# Target: Inadl_10, Q8NI35
# Assay: holdup assay
# Set-up: key: below the threshold = too weak to quantify, mostly under pKd 3.1 to 4
# Details: plain residues with an end cap or a label only (N-terminal biotin on a linker: ado-ado)
# Sequence of Inadl_10, Q8NI35 (Q8NI35 1673-1763): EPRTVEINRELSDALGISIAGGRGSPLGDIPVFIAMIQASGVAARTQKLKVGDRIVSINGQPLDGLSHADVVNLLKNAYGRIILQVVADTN
row,Binder,pKd
1,"KSRPENGTVC [TMEM178B, H3BS89]",below the threshold
2,"IQISELETNV [SLC1A7, O00341]",below the threshold

# Target: Inadl_5, Q8NI35
# Assay: holdup assay
# Set-up: key: below the threshold = too weak to quantify, mostly under pKd 3.1 to 4
# Details: plain residues with an end cap or a label only (N-terminal biotin on a linker: ado-ado)
# Sequence of Inadl_5, Q8NI35 (Q8NI35 673-780): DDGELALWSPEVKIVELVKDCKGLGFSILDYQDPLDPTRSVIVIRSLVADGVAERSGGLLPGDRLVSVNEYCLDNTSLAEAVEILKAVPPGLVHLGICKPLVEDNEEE
row,Binder,pKd
1,"KSRPENGTVC [TMEM178B, H3BS89]",below the threshold
2,"IQISELETNV [SLC1A7, O00341]",below the threshold

# Target: Inadl_9, Q8NI35
# Assay: holdup assay
# Set-up: key: below the threshold = too weak to quantify, mostly under pKd 3.1 to 4
# Details: plain residues with an end cap or a label only (N-terminal biotin on a linker: ado-ado)
# Sequence of Inadl_9, Q8NI35 (Q8NI35 1530-1615): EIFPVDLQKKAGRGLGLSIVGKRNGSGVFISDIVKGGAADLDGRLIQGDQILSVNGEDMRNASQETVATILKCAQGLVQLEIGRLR
row,Binder,pKd
1,"KSRPENGTVC [TMEM178B, H3BS89]",below the threshold
2,"IQISELETNV [SLC1A7, O00341]",below the threshold

# Target: T4, LIN7A, O14910
# T4 sequence (O14910 103-200, limits assumed, looked up): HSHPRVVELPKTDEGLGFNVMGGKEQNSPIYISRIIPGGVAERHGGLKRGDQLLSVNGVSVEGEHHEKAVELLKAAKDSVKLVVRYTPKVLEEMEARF
# Assay: holdup assay
# Set-up: key: below the threshold = too weak to quantify, mostly under pKd 3.1 to 4
# Details: plain residues with an end cap or a label only (N-terminal biotin on a linker: ado-ado)
row,Binder,pKd
1,"KSRPENGTVC [TMEM178B, H3BS89]",below the threshold
2,"IQISELETNV [SLC1A7, O00341]",3.52

# Target: T5, LIN7B, Q9HAP6
# T5 sequence (Q9HAP6 88-185, limits assumed, looked up): T4 sequence (O14910 103-200, limits assumed, looked up) with S2A, V20I, I35V, E42D, H65Q, K77Q, D78G, K89R
# Assay: holdup assay
# Set-up: key: below the threshold = too weak to quantify, mostly under pKd 3.1 to 4
# Details: plain residues with an end cap or a label only (N-terminal biotin on a linker: ado-ado)
row,Binder,pKd
1,"KSRPENGTVC [TMEM178B, H3BS89]",below the threshold
2,"IQISELETNV [SLC1A7, O00341]",below the threshold

# Target: LNX1_1, Q8TBB1
# Assay: holdup assay
# Set-up: key: below the threshold = too weak to quantify, mostly under pKd 3.1 to 4
# Details: plain residues with an end cap or a label only (N-terminal biotin on a linker: ado-ado)
# Sequence of LNX1_1, Q8TBB1 (Q8TBB1 261-371): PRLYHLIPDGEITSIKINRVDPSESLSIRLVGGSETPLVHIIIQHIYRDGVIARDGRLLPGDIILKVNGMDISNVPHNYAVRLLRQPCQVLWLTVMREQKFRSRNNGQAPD
row,Binder,pKd
1,"KSRPENGTVC [TMEM178B, H3BS89]",below the threshold
2,"IQISELETNV [SLC1A7, O00341]",3.91

# Target: MAGI2_2, Q86UL8
# Assay: holdup assay
# Set-up: key: below the threshold = too weak to quantify, mostly under pKd 3.1 to 4
# Details: plain residues with an end cap or a label only (N-terminal biotin on a linker: ado-ado)
# Sequence of MAGI2_2, Q86UL8 (Q86UL8 410-522): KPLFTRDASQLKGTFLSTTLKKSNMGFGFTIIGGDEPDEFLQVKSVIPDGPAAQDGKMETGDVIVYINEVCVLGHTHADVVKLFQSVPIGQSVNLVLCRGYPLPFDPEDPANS
row,Binder,pKd
1,"KSRPENGTVC [TMEM178B, H3BS89]",below the threshold
2,"IQISELETNV [SLC1A7, O00341]",below the threshold

# Target: MAGI2_6, Q86UL8
# Assay: holdup assay
# Set-up: key: below the threshold = too weak to quantify, mostly under pKd 3.1 to 4
# Details: plain residues with an end cap or a label only (N-terminal biotin on a linker: ado-ado)
# Sequence of MAGI2_6, Q86UL8 (Q86UL8 1141-1229): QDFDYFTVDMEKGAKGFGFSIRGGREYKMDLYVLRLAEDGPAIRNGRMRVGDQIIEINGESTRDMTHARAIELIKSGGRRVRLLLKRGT
row,Binder,pKd
1,"KSRPENGTVC [TMEM178B, H3BS89]",below the threshold
2,"IQISELETNV [SLC1A7, O00341]",4.31

# Target: MAST2, Q6P0Q8
# Assay: holdup assay
# Set-up: key: below the threshold = too weak to quantify, mostly under pKd 3.1 to 4
# Details: plain residues with an end cap or a label only (N-terminal biotin on a linker: ado-ado)
# Sequence of MAST2, Q6P0Q8 (Q6P0Q8 1099-1202): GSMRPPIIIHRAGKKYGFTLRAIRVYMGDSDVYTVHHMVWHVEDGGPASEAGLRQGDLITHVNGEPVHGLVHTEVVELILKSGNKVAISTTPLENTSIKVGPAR
row,Binder,pKd
1,"KSRPENGTVC [TMEM178B, H3BS89]",4.21
2,"IQISELETNV [SLC1A7, O00341]",5.61

# Target: T6, MPDZ_12, O75970
# T6 sequence (O75970 1857-1958, limits assumed, looked up): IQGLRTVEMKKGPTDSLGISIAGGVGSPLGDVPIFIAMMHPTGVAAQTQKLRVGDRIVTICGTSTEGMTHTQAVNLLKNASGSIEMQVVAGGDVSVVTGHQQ
# Assay: holdup assay
# Set-up: key: below the threshold = too weak to quantify, mostly under pKd 3.1 to 4
# Details: plain residues with an end cap or a label only (N-terminal biotin on a linker: ado-ado)
row,Binder,pKd
1,"KSRPENGTVC [TMEM178B, H3BS89]",below the threshold
2,"IQISELETNV [SLC1A7, O00341]",below the threshold

# Target: NHERF2_2, Q15599
# Assay: holdup assay
# Set-up: key: below the threshold = too weak to quantify, mostly under pKd 3.1 to 4
# Details: plain residues with an end cap or a label only (N-terminal biotin on a linker: ado-ado)
# Sequence of NHERF2_2, Q15599 (Q15599 142-238): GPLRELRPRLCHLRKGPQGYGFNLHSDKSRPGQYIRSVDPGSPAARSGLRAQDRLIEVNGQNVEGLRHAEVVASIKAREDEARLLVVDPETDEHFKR
row,Binder,pKd
1,"KSRPENGTVC [TMEM178B, H3BS89]",below the threshold
2,"IQISELETNV [SLC1A7, O00341]",3.56

# Target: NHERF4_4, Q86UT5
# Assay: holdup assay
# Set-up: key: below the threshold = too weak to quantify, mostly under pKd 3.1 to 4
# Details: plain residues with an end cap or a label only (N-terminal biotin on a linker: ado-ado)
# Sequence of NHERF4_4, Q86UT5 (Q86UT5 464-550): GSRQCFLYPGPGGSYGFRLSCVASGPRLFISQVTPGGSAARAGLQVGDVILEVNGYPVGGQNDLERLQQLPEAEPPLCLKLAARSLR
row,Binder,pKd
1,"KSRPENGTVC [TMEM178B, H3BS89]",below the threshold
2,"IQISELETNV [SLC1A7, O00341]",3.85

# Target: T7, PCLO, Q9Y6V0
# T7 sequence (Q9Y6V0 4491-4600, limits assumed, looked up): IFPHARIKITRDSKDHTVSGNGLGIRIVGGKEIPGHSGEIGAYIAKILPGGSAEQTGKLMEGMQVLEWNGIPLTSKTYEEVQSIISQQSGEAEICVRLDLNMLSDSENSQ
# Assay: holdup assay
# Set-up: key: below the threshold = too weak to quantify, mostly under pKd 3.1 to 4
# Details: plain residues with an end cap or a label only (N-terminal biotin on a linker: ado-ado)
row,Binder,pKd
1,"KSRPENGTVC [TMEM178B, H3BS89]",below the threshold
2,"IQISELETNV [SLC1A7, O00341]",below the threshold

# Target: T8, PTPN13_1, Q12923
# T8 sequence (Q12923 1088-1188, limits assumed, looked up): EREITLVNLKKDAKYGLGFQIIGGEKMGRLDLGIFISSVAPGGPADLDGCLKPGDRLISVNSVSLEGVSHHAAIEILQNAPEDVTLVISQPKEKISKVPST
# Assay: holdup assay
# Set-up: key: below the threshold = too weak to quantify, mostly under pKd 3.1 to 4
# Details: plain residues with an end cap or a label only (N-terminal biotin on a linker: ado-ado)
row,Binder,pKd
1,"KSRPENGTVC [TMEM178B, H3BS89]",3.59
2,"IQISELETNV [SLC1A7, O00341]",below the threshold

# Target: T9, SHANK1, Q9Y566
# T9 sequence (Q9Y566 658-767, limits assumed, looked up): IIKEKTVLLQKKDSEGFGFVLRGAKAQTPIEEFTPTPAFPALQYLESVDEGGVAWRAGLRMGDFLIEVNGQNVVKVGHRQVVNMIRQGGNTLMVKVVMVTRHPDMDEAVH
# Assay: holdup assay
# Set-up: key: below the threshold = too weak to quantify, mostly under pKd 3.1 to 4
# Details: plain residues with an end cap or a label only (N-terminal biotin on a linker: ado-ado)
row,Binder,pKd
1,"KSRPENGTVC [TMEM178B, H3BS89]",below the threshold
2,"IQISELETNV [SLC1A7, O00341]",3.94

# Target: T10, TX1BP3, O14907
# T10 sequence (O14907 10-122, limits assumed, looked up): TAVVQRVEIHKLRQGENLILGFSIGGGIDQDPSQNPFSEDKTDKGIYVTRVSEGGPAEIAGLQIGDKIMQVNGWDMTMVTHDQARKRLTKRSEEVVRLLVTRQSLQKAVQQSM
# Assay: holdup assay
# Set-up: key: below the threshold = too weak to quantify, mostly under pKd 3.1 to 4
# Details: plain residues with an end cap or a label only (N-terminal biotin on a linker: ado-ado)
row,Binder,pKd
1,"KSRPENGTVC [TMEM178B, H3BS89]",below the threshold
2,"IQISELETNV [SLC1A7, O00341]",4.03
